Like-named read-outs stand apart in the source and are kept apart here.
Key:
Test in all cases: negative-stain electron microscopy
[1] = biological target: Cdc3–Cdc11–(His)6–Cdc12-Cdc10(Δ12–28) complex (Cdc11-Cdc12-Cdc3-Cdc10(Δ12–28) hetero-tetramer) (S. cerevisiae) (UniProt P32457)
[2] = biological target: Cdc3–Cdc11–(His)6–Cdc12-Cdc10(Δ12–28) complex (Cdc11-Cdc12-Cdc3-Cdc10(Δ12–28) hetero-tetramer) (S. cerevisiae) (UniProt P32457); remark: listed apart in the source
[3] = biological target: the molecule itself

percent of particles that are heptamers [1] | percent of particles that are hexamers [1] | percent of particles that are octamers [1] | percent of particles that are pentamers [1] | percent of particles that are tetramers [1] | percent of particles that are tetramers [2] | percent of particles that are trimers [2] | Molecule | percent of particles that are heptamers [3]
18.2% | 10.8% | 21.8% | 8.03% | 41.3% | 88.3% | 11.7% | Cdc3–Cdc11–(His)6–Cdc12-Cdc10(Δ12–28) complex (Cdc11-Cdc12-Cdc3-Cdc10(Δ12–28) hetero-tetramer) (from UniProt P32457 1-520; P32458 1-415; P32468 1-407; P25342 1-322) | 
 |  |  |  |  |  |  | Cdc3–Cdc11–(His)6–Cdc12-Cdc10(H24A R25A K28A K29A) complex (complex, S. cerevisiae) chain 1: MSLKEEQVSIKQDPEQEERQHDQFNDVQIKQESQDHDGVDSQYTNGTQNDDSERFEAAESDVKVEPGLGMGITSSQSEKGQVLPDQPEIKFIRRQINGYVGFANLPKQWHRRSIKNGFSFNLLCVGPDGIGKTTLMKTLFNNDDIEANLVKDYEEELANDQEEEEGQGEGHENQSQEQRHKVKIKSYESVIEENGVKLNLNVIDTEGFGDFLNNDQKSWDPIIKEIDSRFDQYLDAENKINRHSINDKRIHACLYFIEPTGHYLKPLDLKFMQSVYEKCNLIPVIAKSDILTDEEILSFKKTIMNQLIQSNIELFKPPIYSNDDAENSHLSERLFSSLPYAVIGSNDIVENYSGNQVRGRSYPWGVIEVDNDNHSDFNLLKNLLIKQFMEELKERTSKILYENYRSSKLAKLGIKQDNSVFKEFDPISKQQEEKTLHEAKLAKLEIEMKTVFQQKVSEKEKKLQKSETELFARHKEMKEKLTKQLKALEDKKKQLELSINSASPNVNHSPVPTKKKGFLR chain 2: MSGIIDASSALRKRKHLKRGITFTVMIVGQSGSGRSTFINTLCGQQVVDTSTTILLPTDTSTEIDLQLREETVELEDDEGVKIQLNIIDTPGFGDSLDNSPSFEIISDYIRHQYDEILLEESRVRRNPRFKDGRVHCCLYLINPTGHGLKEIDVEFIRQLGSLVNIIPVISKSDSLTRDELKLNKKLIMEDIDRWNLPIYNFPFDEDEISDEDYETNMYLRTLLPFAIIGSNEVYEMGGDVGTIRGRKYPWGILDVEDSSISDFVILRNALLISHLHDLKNYTHEILYERYRTEALSGESVAAESIRPNLTKLNGSSSSSTTTRRNTNPFKQSNNINNDVLNPASDMHGQSTGENNETYMTREEQIRLEEERLKAFEERVQQELLLKRQELLQREKELREIEARLEKEAKIKQEE chain 3: MSAATATAAPVPPPVGISNLPNQRYKIVNEEGGTFTVMLCGESGLGKTTFINTLFQTVLKRADGQQHRQEPIRKTVEIDITRALLEEKHFELRVNVIDTPGFGDNVNNNKAWQPLVDFIDDQHDSYMRQEQQPYRTKKFDLRVHAVLYFIRPTGHGLKPIDIETMKRLSTRANLIPVIAKADTLTAQELQQFKSRIRQVIEAQEIRIFTPPLDADSKEDAKSGSNPDSAAVEHARQLIEAMPFAIVGSEKKFDNGQGTQVVARKYPWGLVEIENDSHCDFRKLRALLLRTYLLDLISTTQEMHYETYRRLRLEGHENTGEGNEDFTLPAIAPARKLSHNPRYKEEENALKKYFTDQVKAEEQRFRQWEQNIVNERIRLNGDLEEIQGKVKKLEEQVKSLQVKKSHLK chain 4: MDPLSSVQPASYVGFDTITNQIEAALLAAGFQFNIMVVGQSGLGKSTLINTLFASHLIDSATGDDISALPVTKTTEMKISTHTLVEDRVRLNINVIDTPGFGDFIDNSKAWEPIVKYIKEQHSQYLRKELTAQRERFITDTRVHAILYFLQPNGKELSRLDVEALKRLTEIANVIPVIGKSDTLTLDERTEFRELIQNEFEKYNFKIYPYDSEELTDEELELNRSVRSIIPFAVVGSENEIEINGETFRGRKTRWSAINVEDINQCDFVYLREFLIRTHLQDLIETTSYIHYEGFRARQLIALKENANSRSSAHMSSNAIQR | 14.2%
 |  |  |  |  |  |  | Cdc3–Cdc11–(His)6–Cdc12-Cdc10(I22E) complex (complex, S. cerevisiae) chain 1: MSLKEEQVSIKQDPEQEERQHDQFNDVQIKQESQDHDGVDSQYTNGTQNDDSERFEAAESDVKVEPGLGMGITSSQSEKGQVLPDQPEIKFIRRQINGYVGFANLPKQWHRRSIKNGFSFNLLCVGPDGIGKTTLMKTLFNNDDIEANLVKDYEEELANDQEEEEGQGEGHENQSQEQRHKVKIKSYESVIEENGVKLNLNVIDTEGFGDFLNNDQKSWDPIIKEIDSRFDQYLDAENKINRHSINDKRIHACLYFIEPTGHYLKPLDLKFMQSVYEKCNLIPVIAKSDILTDEEILSFKKTIMNQLIQSNIELFKPPIYSNDDAENSHLSERLFSSLPYAVIGSNDIVENYSGNQVRGRSYPWGVIEVDNDNHSDFNLLKNLLIKQFMEELKERTSKILYENYRSSKLAKLGIKQDNSVFKEFDPISKQQEEKTLHEAKLAKLEIEMKTVFQQKVSEKEKKLQKSETELFARHKEMKEKLTKQLKALEDKKKQLELSINSASPNVNHSPVPTKKKGFLR chain 2: MSGIIDASSALRKRKHLKRGITFTVMIVGQSGSGRSTFINTLCGQQVVDTSTTILLPTDTSTEIDLQLREETVELEDDEGVKIQLNIIDTPGFGDSLDNSPSFEIISDYIRHQYDEILLEESRVRRNPRFKDGRVHCCLYLINPTGHGLKEIDVEFIRQLGSLVNIIPVISKSDSLTRDELKLNKKLIMEDIDRWNLPIYNFPFDEDEISDEDYETNMYLRTLLPFAIIGSNEVYEMGGDVGTIRGRKYPWGILDVEDSSISDFVILRNALLISHLHDLKNYTHEILYERYRTEALSGESVAAESIRPNLTKLNGSSSSSTTTRRNTNPFKQSNNINNDVLNPASDMHGQSTGENNETYMTREEQIRLEEERLKAFEERVQQELLLKRQELLQREKELREIEARLEKEAKIKQEE chain 3: MSAATATAAPVPPPVGISNLPNQRYKIVNEEGGTFTVMLCGESGLGKTTFINTLFQTVLKRADGQQHRQEPIRKTVEIDITRALLEEKHFELRVNVIDTPGFGDNVNNNKAWQPLVDFIDDQHDSYMRQEQQPYRTKKFDLRVHAVLYFIRPTGHGLKPIDIETMKRLSTRANLIPVIAKADTLTAQELQQFKSRIRQVIEAQEIRIFTPPLDADSKEDAKSGSNPDSAAVEHARQLIEAMPFAIVGSEKKFDNGQGTQVVARKYPWGLVEIENDSHCDFRKLRALLLRTYLLDLISTTQEMHYETYRRLRLEGHENTGEGNEDFTLPAIAPARKLSHNPRYKEEENALKKYFTDQVKAEEQRFRQWEQNIVNERIRLNGDLEEIQGKVKKLEEQVKSLQVKKSHLK chain 4: MDPLSSVQPASYVGFDTITNQEEHRLLKKGFQFNIMVVGQSGLGKSTLINTLFASHLIDSATGDDISALPVTKTTEMKISTHTLVEDRVRLNINVIDTPGFGDFIDNSKAWEPIVKYIKEQHSQYLRKELTAQRERFITDTRVHAILYFLQPNGKELSRLDVEALKRLTEIANVIPVIGKSDTLTLDERTEFRELIQNEFEKYNFKIYPYDSEELTDEELELNRSVRSIIPFAVVGSENEIEINGETFRGRKTRWSAINVEDINQCDFVYLREFLIRTHLQDLIETTSYIHYEGFRARQLIALKENANSRSSAHMSSNAIQR | 24.9%
